# Several values for one entry are separate records, joined by “and”; a condition that tells them apart may be missing. Identical values can stand only once.
# B1: Streptococcus pneumoniae NrdR (natural protein, Streptococcus pneumoniae TIGR4, UniProt P67318 1-157, looked up)
# chain: MRCPKCGATKSSVIDSRQAEEGNTIRRRRECDECQHRFTTYERVEERTLVVVKKDGTREQFSRDKIFNGIIRSAQKRPVSSDEINMVVNRIEQKLRGRNENEIQSEDIGSLVMEELAELDEITYVRFASVYRSFKDVSELESLLQQITQSSKKKKER
# notes: NrdR, transcriptional repressor of ribonucleotide reductase genes, S. pneumoniae TIGR4; the nrdR gene (SP_1713, AAK75791) cloned in pET30a(+) between NdeI and XhoI; molecular mass including the hexa-histidine tag 19.4 kDa; Oligomeric state depends on the nucleotides added (none, ATP, dATP + ATP); also called SpnNrdR; source: E. coli BL21(DE3), purified (HisTrap FF Ni-Sepharose, desalting); not …
# B2: Listeria monocytogenes NrdR (natural protein, UniProt B8DHI6 1-154, looked up)
# chain: MRCPTCQYNGTRVVDSRPADDGNSIRRRRECEKCGFRFTTFEKVEESPLIVVKKDGAREEFAREKVRRGLIRACEKRPVSAEQIEEIVNEVERELRNIGDSEIASDLIGEKVMNKLANLDEVAYVRFASVYRQFKDISVFVEELKDLMEKNKDR
# notes: NrdR, transcriptional repressor of ribonucleotide reductase genes, L. monocytogenes serotype 1/2a str; S10403S; molecular mass including the hexa-histidine tag 19 kDa; Oligomeric state depends on the nucleotides added; also called LmoNrdR; L. monocytogenes NrdR; source: E. coli BL21(DE3), purified (HisTrap FF Ni-Sepharose, desalting); not shown: His6, C-terminal, kept
# Experiments:
# [1] = target: the molecule itself; assay: SEC; SpnNrdR 50 uM incubated with 0.5 mM ATP, 0.5 mM dATP and 2.5 mM MgCl; ATP and dATP 0.1 mM each in the buffer; Superdex S200 Increase, 4 C; 25 mM HEPES pH 7.2, 2.5 mM MgCl2, 15% glycerol, 250 mM NaCl, 0.1 mM TCEP
# [2] = target: the molecule itself; assay: SEC; LmoNrdR 50 uM incubated with dATP + ATP and 5 mM MgCl; 0.1 mM of each nucleotide in the buffer; Superdex S200 Increase, 4 C; 25 mM Bis-Tris Propane pH 6.5, 5% glycerol, 5 mM MgCl2, 100 mM KCl, 1 mM DTT
# [3] = target: the molecule itself; assay: SEC; LmoNrdR 50 uM, no nucleotides in protein or buffer (apo); Superdex S200 Increase, 4 C; 25 mM Bis-Tris Propane pH 6.5, 5% glycerol, 5 mM MgCl2, 100 mM KCl, 1 mM DTT; size from a calibration curve of globular standards
# [4] = target: the molecule itself; assay: SEC; LmoNrdR 50 uM incubated with 1 mM ATP and 5 mM MgCl; 0.2 mM ATP in the buffer; Superdex S200 Increase, 4 C; 25 mM Bis-Tris Propane pH 6.5, 5% glycerol, 5 mM MgCl2, 100 mM KCl, 1 mM DTT
Protein,stoichiometry N [1],stoichiometry N [2],stoichiometry N [3],stoichiometry N [4]
B1,4,,,
B2,,4,2 and 4,8
